Test results reported in patent US20120058906A1 (published 2012).

Key:
[1] = target: T1, rHuman EGF R/Fc Chimera, CF (R&D Systems Cat#344-ER) (human, UniProt P00533 25-645); experiment: MSD ECL multi-spot, Fab 0.74 uM, blank 692;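 further: blank spot per well as comparator with Hit at signal to blank ratio of 4 or more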
T1 construct: Bought Fc chimera; Fc part of the bought chimera not given

[2] = target: T2, rHuman Erythropoietin R/Fc Chimera, CF (R&D Systems Cat#963-ER) (human, UniProt P19235 25-250); experiment: MSD ECL multi-spot, Fab 0.74 uM, blank 692;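 further: blank spot per well as comparator with Hit at signal to blank ratio of 4 or more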
T2 construct: Bought Fc chimera; also called EPO R/Fc; EPOR; Fc part of the bought chimera not given
T2 sequence: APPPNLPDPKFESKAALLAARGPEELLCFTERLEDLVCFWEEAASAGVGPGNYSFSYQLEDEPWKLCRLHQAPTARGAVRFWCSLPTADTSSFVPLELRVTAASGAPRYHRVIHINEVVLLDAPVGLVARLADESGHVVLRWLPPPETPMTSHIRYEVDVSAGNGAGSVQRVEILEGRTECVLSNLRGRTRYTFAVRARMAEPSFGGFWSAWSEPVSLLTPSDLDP

[3] = target: T3, Recombinant Human DLL4 (R&D Systems Cat#1506-D4/CF) (human, UniProt Q9NR61 27-524); experiment: MSD ECL multi-spot, Fab 0.74 uM, blank 692;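 further: blank spot per well as comparator with Hit at signal to blank ratio of 4 or more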
T3 construct: Bought recombinant protein; also called rHuman DLL4; delta-like protein 4

[4] = target: T4, rHuman IGF-1 sR (insulin-like growth factor-1 soluble receptor), CF (R&D Systems Cat#391-GR) (human, UniProt P08069 31-932); experiment: MSD ECL multi-spot, Fab 0.74 uM, blank 692;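 further: blank spot per well as comparator with Hit at signal to blank ratio of 4 or more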
T4 construct: Bought soluble receptor; also called IGF-R1

[5] = target: T5, rHuman CD44/Fc Chimera, CF (R&D Systems Cat#3660-CD) (human, UniProt P16070 21-220); experiment: MSD ECL multi-spot, Fab 0.74 uM, blank 692
T5 construct: Bought Fc chimera; Fc part of the bought chimera not given

[6] = target: T6, rHuman HGF R/c-MET/Fc Chimera, CF (R&D Systems Cat#358-MT/CF) (human, UniProt P08581 25-932); experiment: MSD ECL multi-spot, Fab 0.74 uM, blank 692
T6 construct: Bought Fc chimera; also called HGF R/Fc; Fc part of the bought chimera not given

[7] = target: T7, rHuman Notch-1/Fc Chimera, CF (R&D Systems Cat#3647-TK) (human, UniProt P46531 19-526); experiment: MSD ECL multi-spot, Fab 0.74 uM, blank 692
T7 construct: Bought Fc chimera; Fc part of the bought chimera not given

[8] = target: T8, rHuman ErbB2/Fc Chimera, CF (R&D Systems Cat#1129-ER) (human, UniProt P04626 23-652); experiment: MSD ECL multi-spot, Fab 0.74 uM, blank 692
T8 construct: Bought Fc chimera; also called HER2/neu; Fc part of the bought chimera not given

[9] = target: T9, rHuman P-Cadherin/Fc Chimera, CF (R&D Systems Cat#861-PC) (human, UniProt P22223 108-654); experiment: MSD ECL multi-spot, Fab 0.74 uM, blank 692
T9 construct: Bought Fc chimera; Fc part of the bought chimera not given

[10] = target: T10, rHuman Erythropoietin R/Fc Chimera, CF (R&D Systems, Cat#963-ER) (human, UniProt P19235 25-250); experiment: ECL (MSD) Fab titration; binding affinity estimated from the 50% binding signal
T10 construct: Bought chimera; also called EPO R/Fc; Epo R; Fc part of the bought chimera not given
T10 sequence: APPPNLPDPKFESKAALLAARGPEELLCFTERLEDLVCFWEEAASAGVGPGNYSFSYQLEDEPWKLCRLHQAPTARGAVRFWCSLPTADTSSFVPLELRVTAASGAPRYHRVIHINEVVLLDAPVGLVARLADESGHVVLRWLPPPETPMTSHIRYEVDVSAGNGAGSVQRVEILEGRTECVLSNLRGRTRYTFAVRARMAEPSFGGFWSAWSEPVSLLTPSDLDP

[11] = target: T1, rHuman EGF R/Fc Chimera, CF (R&D …); experiment: MSD ECL multi-spot, Fab 0.21 uM, blank 529; row label 3 may be swapped with 4
[12] = target: T2, rHuman Erythropoietin R/Fc Chimera, CF …; experiment: as above
[13] = target: T3, Recombinant Human DLL4 (R&D Systems …); experiment: as above
[14] = target: T4, rHuman IGF-1 sR (insulin-like growth …); experiment: as above
[15] = target: T5, rHuman CD44/Fc Chimera, CF (R&D Systems …); experiment: as above
[16] = target: T6, rHuman HGF R/c-MET/Fc Chimera, CF (R&D …); experiment: as above
[17] = target: T7, rHuman Notch-1/Fc Chimera, CF (R&D …); experiment: as above
[18] = target: T8, rHuman ErbB2/Fc Chimera, CF (R&D …); experiment: as above
[19] = target: T9, rHuman P-Cadherin/Fc Chimera, CF (R&D …); experiment: as above
[20] = target: T11, rHuman CD44/Fc Chimera, CF (R&D Systems Cat#3660-CD) (human, UniProt P16070 21-220); experiment: ECL (MSD multi-spot), Fab 14.5 nM; blank 117
T11 construct: Bought Fc chimera; Fc part of the bought chimera not given

[21] = target: T12, Recombinant Human DLL4 (R&D Systems Cat#1506-D4/CF) (human, UniProt Q9NR61 27-524); experiment: ECL (MSD multi-spot), Fab 14.5 nM; blank 117
T12 construct: Bought recombinant protein; also called delta-like protein 4

[22] = target: T13, rHuman Erythropoietin R/Fc Chimera, CF (R&D Systems Cat#963-ER) (human, UniProt P19235 25-250); experiment: ECL (MSD multi-spot), Fab 14.5 nM; blank 117
T13 construct: Bought Fc chimera; also called EPO R/Fc; Epo R; Fc part of the bought chimera not given
T13 sequence: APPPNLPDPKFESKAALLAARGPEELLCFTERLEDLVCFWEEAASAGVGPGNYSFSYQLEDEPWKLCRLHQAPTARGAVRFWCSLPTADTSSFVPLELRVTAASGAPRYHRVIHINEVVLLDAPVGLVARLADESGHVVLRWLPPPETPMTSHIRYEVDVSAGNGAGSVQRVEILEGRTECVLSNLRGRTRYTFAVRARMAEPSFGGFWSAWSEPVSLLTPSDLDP

[23] = target: T14, rHuman Notch-1/Fc Chimera, CF (R&D Systems Cat#3647-TK) (human, UniProt P46531 19-526); experiment: ECL (MSD multi-spot), Fab 14.5 nM; blank 117
T14 construct: Bought Fc chimera; Fc part of the bought chimera not given

[24] = target: T15, rHuman ErbB2/Fc Chimera, CF (R&D Systems Cat#1129-ER) (human, UniProt P04626 23-652); experiment: ECL (MSD multi-spot), Fab 14.5 nM; blank 117
T15 construct: Bought Fc chimera; also called human epidermal growth factor 2 receptor; HER2/neu; Fc part of the bought chimera not given

[25] = target: T11, rHuman CD44/Fc Chimera, CF (R&D Systems …); experiment: ECL (MSD multi-spot), Fab 232.5 nM; blank 460
[26] = target: T12, Recombinant Human DLL4 (R&D Systems …); experiment: ECL (MSD multi-spot), Fab 232.5 nM; blank 460
[27] = target: T13, rHuman Erythropoietin R/Fc Chimera, CF …; experiment: ECL (MSD multi-spot), Fab 232.5 nM; blank 460
[28] = target: T14, rHuman Notch-1/Fc Chimera, CF (R&D …); experiment: ECL (MSD multi-spot), Fab 232.5 nM; blank 460
[29] = target: T15, rHuman ErbB2/Fc Chimera, CF (R&D …); experiment: ECL (MSD multi-spot), Fab 232.5 nM; blank 460
[30] = target: T11, rHuman CD44/Fc Chimera, CF (R&D Systems …); experiment: ECL (MSD multi-spot), Fab 58.1 nM; blank 225
[31] = target: T12, Recombinant Human DLL4 (R&D Systems …); experiment: ECL (MSD multi-spot), Fab 58.1 nM; blank 225
[32] = target: T13, rHuman Erythropoietin R/Fc Chimera, CF …; experiment: ECL (MSD multi-spot), Fab 58.1 nM; blank 225
[33] = target: T14, rHuman Notch-1/Fc Chimera, CF (R&D …); experiment: ECL (MSD multi-spot), Fab 58.1 nM; blank 225
[34] = target: T15, rHuman ErbB2/Fc Chimera, CF (R&D …); experiment: ECL (MSD multi-spot), Fab 58.1 nM; blank 225
[35] = target: T11, rHuman CD44/Fc Chimera, CF (R&D Systems …); experiment: ECL (MSD multi-spot), Fab 930 nM; blank 1206
[36] = target: T12, Recombinant Human DLL4 (R&D Systems …); experiment: ECL (MSD multi-spot), Fab 930 nM; blank 1206
[37] = target: T13, rHuman Erythropoietin R/Fc Chimera, CF …; experiment: ECL (MSD multi-spot), Fab 930 nM; blank 1206
[38] = target: T14, rHuman Notch-1/Fc Chimera, CF (R&D …); experiment: ECL (MSD multi-spot), Fab 930 nM; blank 1206
[39] = target: T15, rHuman ErbB2/Fc Chimera, CF (R&D …); experiment: ECL (MSD multi-spot), Fab 930 nM; blank 1206

B1: Fab VH1-46_IGHD3-10*01_IGHJ4*01 & B3_IGKJ1*01 (Fab, V domains shown)
VH: QVQLVQSGAEVKKPGASVKVSCKASGYTFTSYYMHWVRQAPGQGLEWMGIINPSGGSTSYAQKFQGRVTMTRDTSTSTVYMELSSLRSEDTAVYYCAREYYYGSGSYYNDYFDYWGQGTLVTVSS
VL: not shown
notes: Expressed in E. coli as Fab: heavy chain with CH1 plus Flag and His tags from Plasmid A, kappa light chain constant region from Plasmid C; also called Fab No. 5
[1]
  ECL signal: 652
[2]
  ECL signal: 4110
[3]
  ECL signal: 1000
[4]
  ECL signal: 593
[5]
  ECL signal: 682
[6]
  ECL signal: 633
[7]
  ECL signal: 980
[8]
  ECL signal: 562
[9]
  ECL signal: 1160

B2: Fab VH1-46_IGHD3-10*01_IGHJ4*01 & B3_IGKJ1*01 (Fab, V domains shown)
VH: QVQLVQSGAEVKKPGASVKVSCKASGYTFTSYYMHWVRQAPGQGLEWMGIINPSGGSTSYAQKFQGRVTMTRDTSTSTVYMELSSLRSEDTAVYYCAREYYYGSGSYYNDYFDYWGQGTLVTVSS
VL: not shown
notes: Fab from E. coli; VH joined to CH1 with Flag and His tags (Plasmid A), VL to kappa CL (Plasmid C)
[10]
  Kd: ~100 nM

B3: Fab VH6-1_IGHD3-3*01_IGHJ4*01 & V4-3_IGLJ4*01 (Fab, V domains shown)
VH: QVQLQQSGPGLVKPSQTLSLTCAISGDSVSSNSAAWNWIRQSPSRGLEWLGRTYYRSKWYNDYAVSVKSRITINPDTSKNQFSLQLNSVTPEDTAVYYCAREYYDFWSGYYTDYFDYWGQGTLVTVSS
VL: QPVLTQPTSLSASPGASARLTCTLRSGINLGSYRIFWYQQKPESPPRYLLSYYSDSSKHQGSGVPSRFSGSKDASSNAGILVISGLQSEDEADYYCMIWHSSASFVFGGGTQLIIL
notes: Expressed in E. coli as Fab: heavy chain with CH1 plus Flag and His tags from Plasmid A, lambda light chain constant region from Plasmid E; also called Fab No. 3
[11]
  ECL signal: 815
[12]
  ECL signal: 1120
[13]
  ECL signal: 1070
[14]
  ECL signal: 763
[15]
  ECL signal: 837
[16]
  ECL signal: 744
[17]
  ECL signal: 949
[18]
  ECL signal: 9230
[19]
  ECL signal: 890

B4: Fab VH1-46_IGHD6-13*01_IGHJ4*01 & O1_IGKJ1*01 (Fab, V domains shown)
VH: QVQLVQSGAEVKKPGASVKVSCKASGYTFTSYYMHWVRQAPGQGLEWMGIINPSGGSTSYAQKFQGRVTMTRDTSTSTVYMELSSLRSEDTAVYYCAREGYSSSWYDYFDYWGQGTLVTVSS
VL: DIVMTQTPLSLPVTPGEPASISCRSSQSLLDSDDGNTYLDWYLQKPGQSPQLLIYTLSYRASGVPDRFSGSGSGTDFTLKISRVEAEDVGVYYCMQRIEFPSWTFGQGTKVEIK
notes: Tested as a Fab expressed in E. coli: heavy chain with CH1 plus Flag and His tags from Plasmid A, kappa constant region from Plasmid C
[20]
  ECL signal: 212 ECL signal
[21]
  ECL signal: 1150 ECL signal
[22]
  ECL signal: 660 ECL signal
[23]
  ECL signal: 317 ECL signal
[24]
  ECL signal: 274 ECL signal
[25]
  ECL signal: 607 ECL signal
[26]
  ECL signal: 3590 ECL signal
[27]
  ECL signal: 1470 ECL signal
[28]
  ECL signal: 778 ECL signal
[29]
  ECL signal: 779 ECL signal
[30]
  ECL signal: 375 ECL signal
[31]
  ECL signal: 1880 ECL signal
[32]
  ECL signal: 829 ECL signal
[33]
  ECL signal: 388 ECL signal
[34]
  ECL signal: 322 ECL signal
[35]
  ECL signal: 1920 ECL signal
[36]
  ECL signal: 8160 ECL signal
[37]
  ECL signal: 3010 ECL signal
[38]
  ECL signal: 2210 ECL signal
[39]
  ECL signal: 2220 ECL signal
